From PMC8016844, “Grb2 binding induces phosphorylation-independent activation of Shp2” (Communications Biology, 2021) come the findings set out here.

As a reminder, the Kd is the free concentration of one partner at which half of the binding sites on the other are occupied at equilibrium, for simple one-to-one binding.

The target in the test is T1, Shp2 N-terminal SH2 domain (Shp2_(NSH2)) (UniProt Q06124 6-102).
T1 construct: Shp2 (PTPN11), N-terminal SH2 domain; Atto 488 labelled in MST; uniformly 15N-labelled in the NMR titration; Perturbed residues up to Y100 are named, so the construct reaches at least residue 100; also called Shp2-NSH2 domain; source: E. coli BL21 (DE3), pET28b, purified (Talon buffers, Superdex SD75)
T1 sequence (looked up): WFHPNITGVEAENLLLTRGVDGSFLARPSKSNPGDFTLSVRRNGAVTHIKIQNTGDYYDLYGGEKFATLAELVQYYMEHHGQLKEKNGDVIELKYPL
In words: MST; target protein labelled with Atto 488 NHS ester, 100 nM; unlabelled ligand serially diluted; Monolith NT.115; 25 °C; 20 mM HEPES pH 7.5, 150 mM NaCl, 0.5 mM TCEP, 0.005% Tween 20. Conditions: both partners purified.

B1: isolated NSH3 domain of Grb2 (Grb2_(NSH3)) (domain or fragment)
chain: MEAIAKYDFKATADDELSFKRGDILKVLNEECDQNWYKAELNGKDGFIPKNYIEMKPH
In turn, B1 showed a Kd of 422 ± 21.5 µM.
